The source of these data is US20190015483A1 (CSL BEHRING RECOMBINANT FACILITY, published 2019).

By Kd is commonly meant a measure of binding affinity in units of concentration. For orientation: koff means the first-order rate constant of dissociation. For orientation: kon means the second-order rate constant of association.

Numbering of substitutions follows the chain as printed. Numbers in names are those of the source.

The experiment has as its target T1, recombinant Factor VIII (CSL627, rVIII-SingleChain) (Homo sapiens (Human), UniProt P00451 20-2351).
T1 construct: also called FVIII
T1 sequence: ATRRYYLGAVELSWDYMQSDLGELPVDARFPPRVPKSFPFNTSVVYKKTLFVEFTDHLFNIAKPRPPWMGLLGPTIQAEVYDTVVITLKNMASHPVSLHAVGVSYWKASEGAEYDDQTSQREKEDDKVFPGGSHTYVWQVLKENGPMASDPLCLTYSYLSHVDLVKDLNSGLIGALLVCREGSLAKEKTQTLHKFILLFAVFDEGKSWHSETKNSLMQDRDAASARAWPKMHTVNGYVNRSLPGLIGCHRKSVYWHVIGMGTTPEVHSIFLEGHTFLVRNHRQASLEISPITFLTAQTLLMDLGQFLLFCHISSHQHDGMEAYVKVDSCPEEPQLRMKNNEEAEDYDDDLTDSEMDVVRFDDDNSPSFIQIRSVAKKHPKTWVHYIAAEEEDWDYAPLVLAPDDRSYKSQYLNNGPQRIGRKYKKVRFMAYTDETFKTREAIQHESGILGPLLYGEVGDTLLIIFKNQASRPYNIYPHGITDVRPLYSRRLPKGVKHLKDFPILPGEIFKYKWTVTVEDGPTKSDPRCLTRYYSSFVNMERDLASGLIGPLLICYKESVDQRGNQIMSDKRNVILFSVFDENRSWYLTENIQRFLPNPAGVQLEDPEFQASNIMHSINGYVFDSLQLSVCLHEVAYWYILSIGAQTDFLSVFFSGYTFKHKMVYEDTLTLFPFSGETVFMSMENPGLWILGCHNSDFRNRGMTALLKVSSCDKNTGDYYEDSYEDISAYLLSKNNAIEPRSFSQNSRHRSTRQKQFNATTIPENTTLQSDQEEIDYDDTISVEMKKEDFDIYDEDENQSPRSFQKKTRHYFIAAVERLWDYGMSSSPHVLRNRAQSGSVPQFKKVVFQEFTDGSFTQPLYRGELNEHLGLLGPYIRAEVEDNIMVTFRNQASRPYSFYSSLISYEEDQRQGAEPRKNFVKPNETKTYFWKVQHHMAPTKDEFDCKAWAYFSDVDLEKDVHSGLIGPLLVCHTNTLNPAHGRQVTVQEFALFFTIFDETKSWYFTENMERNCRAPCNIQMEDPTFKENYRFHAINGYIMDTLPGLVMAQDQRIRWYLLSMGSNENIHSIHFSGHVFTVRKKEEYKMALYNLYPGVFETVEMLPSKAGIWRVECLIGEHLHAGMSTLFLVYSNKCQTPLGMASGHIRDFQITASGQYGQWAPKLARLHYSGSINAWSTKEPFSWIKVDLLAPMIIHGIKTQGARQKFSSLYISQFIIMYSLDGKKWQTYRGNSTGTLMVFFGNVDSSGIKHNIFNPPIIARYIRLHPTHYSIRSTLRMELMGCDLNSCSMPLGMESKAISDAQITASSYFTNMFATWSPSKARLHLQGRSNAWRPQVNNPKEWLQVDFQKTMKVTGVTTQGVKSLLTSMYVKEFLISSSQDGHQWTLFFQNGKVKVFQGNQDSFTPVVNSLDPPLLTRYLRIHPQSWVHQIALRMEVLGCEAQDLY
In words: SPR, anti-His capture, FVIII injected, 37 C. As for the experimental part: Binding kinetics were investigated by surface plasmon resonance using a Biacore 4000 biosensor at 37° C. Each mutant was captured from cell culture medium to a density of 40-150 RU on a CM-5 sensor chip pre-immobilised with anti-His antibody (14,000 RU). In an initial screening study, FVIII was injected over the captured mutants for 5 minutes at 1 nM and dissociation monitored for 5 minutes.
All sensorgrams were double referenced by subtraction of signals from a reference spot (containing only immobilised anti His antibody) and from a blank injection. Binding kinetics were determined by fitting the double referenced sensorgrams to a 1:1 kinetic model.
In general terms: Surface plasmon resonance follows binding to a sensor surface in real time, without labels.

B1: Hu-vWF[764-1270]-8His S764P-L765R-S766I (other)
chain: PRICRPPMVKLVCPADNLRAEGLECTKTCQNYDLECMSMGCVSGCLCPPGMVRHENRCVALERCPCFHQGKEYAPGETVKIGCNTCVCRDRKWNCTDHVCDATCSTIGMAHYLTFDGLKYLFPGECQYVLVQDYCGSNPGTFRILVGNKGCSHPSVKCKKRVTILVEGGEIELFDGEVNVKRPMKDETHFEVVESGRYIILLLGKALSVVWDRHLSISVVLKQTYQEKVCGLCGNFDGIQNNDLTSSNLQVEEDPVDFGNSWKVSSQCADTRKVPLDSSPATCHNNIMKQTMVDSSCRILTSDVFQDCNKLVDPEPYLDVCIYDTCSCESIGDCACFCDTIAAYAHVCAQHGKVVTWRTATLCPQSCEERNLRENGYECEWRYNSCAPACQVTCQHPEPLACPVQCVEGCHAHCPPGKILDELLQTCVDPEDCPVCEVAGRRFASGKKVTLNPSDPEHCQICHCDVVNLTCEACQEPGGLVVPPTDAPVSPTTLYVEDISEPPLHDFHHHHHHHH
As for B1, the dissociation constant Kd was determined as 218 pM, the koff is 0.0173 s⁻¹ and the on-rate constant (kon) is 7.96e+07 M⁻¹ s⁻¹.

B2: Hu-vWF[764-1270]-8His S766W-L809Y (other)
chain: B1 chain with P1S, R2L, I3W, L46Y
As for B2, the Kd came out at 500 pM, the koff amounted to 0.00339 s⁻¹ and the kon is 6.77e+06 M⁻¹ s⁻¹.

B3: Hu-vWF[764-1270]-8His S766W-L809K (other)
chain: B1 chain with P1S, R2L, I3W, L46K
As to B3, the Kd worked out at 219 pM, the dissociation rate constant (koff) amounted to 0.00153 s⁻¹ and the on-rate constant (kon) came to 7e+06 M⁻¹ s⁻¹.

B4: Hu-vWF[764-1270]-8His S766W-L809Q (other)
chain: B1 chain with P1S, R2L, I3W, L46Q
As to B4, the Kd turned out to be 212 pM, the koff was determined as 0.00113 s⁻¹ and the on-rate constant (kon) worked out at 5.33e+06 M⁻¹ s⁻¹.

B5: Hu-vWF[764-1270]-8His S766W-L809G (other)
chain: B1 chain with P1S, R2L, I3W, L46G
In the case of B5, the Kd was determined as 363 pM, the koff stood at 0.00226 s⁻¹ and the kon is 6.21e+06 M⁻¹ s⁻¹.

B6: Hu-vWF[764-1270]-8His S766W-L809V (other)
chain: B1 chain with P1S, R2L, I3W, L46V
With B6, the Kd amounted to 122 pM, the koff is 0.00094 s⁻¹ and the kon was found to be 7.7e+06 M⁻¹ s⁻¹.

B7: Hu-vWF[764-1270]-8His S766W-L809T (other)
chain: B1 chain with P1S, R2L, I3W, L46T
On to B7, for which the Kd was determined as 161 pM, the koff was found to be 0.00141 s⁻¹ and the kon was 8.72e+06 M⁻¹ s⁻¹.

B8: Hu-vWF[764-1270]-8His S766W-S806A (other)
chain: B1 chain with P1S, R2L, I3W, S43A
As to B8, the Kd is 77.8 pM, the koff was 0.000376 s⁻¹ and the kon was 4.84e+06 M⁻¹ s⁻¹.

B9: Hu-vWF[764-1270]-8His S764P-L765V-S766I (other)
chain: B1 chain with R2V
For the molecule B9, the Kd was determined as 2.07 pM, the koff worked out at 0.000116 s⁻¹ and the kon was 5.62e+07 M⁻¹ s⁻¹.

B10: Hu-vWF[764-1270]-8His S766W-L809E (other)
chain: B1 chain with P1S, R2L, I3W, L46E
For B10, the Kd came to 265 pM, the koff was determined as 0.00155 s⁻¹ and the kon was 5.84e+06 M⁻¹ s⁻¹.

B11: Hu-vWF[764-1270]-8His S766W-L809N (other)
chain: B1 chain with P1S, R2L, I3W, L46N
Regarding B11, the Kd was 369 pM, the dissociation rate constant (koff) is 0.00227 s⁻¹ and the kon came to 6.15e+06 M⁻¹ s⁻¹.

B12: Hu-vWF[764-1270]-8His S766W-L809W (other)
chain: B1 chain with P1S, R2L, I3W, L46W
On to B12, for which the dissociation constant (Kd) stood at 648 pM, the koff came out at 0.00312 s⁻¹ and the kon was determined as 4.81e+06 M⁻¹ s⁻¹.

B13: Hu-vWF[764-1270]-8His S766W-L809H (other)
chain: B1 chain with P1S, R2L, I3W, L46H
In the case of B13, the Kd is 397 pM, the koff turned out to be 0.00114 s⁻¹ and the kon came to 2.87e+06 M⁻¹ s⁻¹.

B14: Hu-vWF[764-1270]-8His S766W-L809I (other)
chain: B1 chain with P1S, R2L, I3W, L46I
Turning to B14, the equilibrium dissociation constant (Kd) is 103 pM, the koff came out at 0.000541 s⁻¹ and the kon came out at 5.23e+06 M⁻¹ s⁻¹.

B15: Hu-vWF[764-1270]-8His S766W-S806F (other)
chain: B1 chain with P1S, R2L, I3W, S43F
For B15, the binding result is on record as “no binding”.

B16: Hu-vWF[764-1270]-8His S766W-S806E (other)
chain: B1 chain with P1S, R2L, I3W, S43E
With B16, the dissociation constant (Kd) is 217 pM, the koff was found to be 0.00129 s⁻¹ and the kon is 5.93e+06 M⁻¹ s⁻¹.

B17: Hu-vWF[764-1270]-8His S766W-L809D (other)
chain: B1 chain with P1S, R2L, I3W, L46D
As for B17, the Kd came out at 425 pM, the koff amounted to 0.0019 s⁻¹ and the kon was found to be 4.46e+06 M⁻¹ s⁻¹.

B18: Hu-vWF[764-1270]-8His S766W-L809S (other)
chain: B1 chain with P1S, R2L, I3W, L46S
As to B18, the Kd worked out at 220 pM, the koff stood at 0.00144 s⁻¹ and the kon was found to be 6.54e+06 M⁻¹ s⁻¹.

B19: Hu-vWF[764-1270]-8His S766W-L809M (other)
chain: B1 chain with P1S, R2L, I3W, L46M
Take B19: the Kd was found to be 117 pM, the koff came out at 0.000581 s⁻¹ and the kon turned out to be 4.99e+06 M⁻¹ s⁻¹.

B20: Hu-vWF[764-1270]-8His S766W-L809R (other)
chain: B1 chain with P1S, R2L, I3W, L46R
Regarding B20, the Kd came out at 352 pM, the koff was found to be 0.00213 s⁻¹ and the kon turned out to be 6.07e+06 M⁻¹ s⁻¹.

B21: Hu-vWF[764-1270]-8His S766W-S806D (other)
chain: B1 chain with P1S, R2L, I3W, S43D
For B21, the Kd was found to be 164 pM, the koff was 0.000688 s⁻¹ and the kon is 4.2e+06 M⁻¹ s⁻¹.

B22: Hu-vWF[764-1270]-8His S766W-L809P (other)
chain: B1 chain with P1S, R2L, I3W, L46P
For B22, the binding result is on record as “no binding”.

B23: Hu-vWF[764-1270]-8His S766W-L809F (other)
chain: B1 chain with P1S, R2L, I3W, L46F
With B23, the Kd is 228 pM, the koff was 0.000744 s⁻¹ and the on-rate constant (kon) is 3.26e+06 M⁻¹ s⁻¹.

B24: Hu-vWF[764-1270]-8His S764P-L765T-S766I (other)
chain: B1 chain with R2T
As to B24, the Kd was found to be 28.7 pM, the koff turned out to be 0.00331 s⁻¹ and the kon was 1.15e+08 M⁻¹ s⁻¹.

B25: Hu-vWF[764-1270]-8His S764P-L765Y-S766I (other)
chain: B1 chain with R2Y
With B25, the Kd stood at 36.7 pM, the koff was determined as 0.0019 s⁻¹ and the kon came out at 5.17e+07 M⁻¹ s⁻¹.

B26: Hu-vWF[764-1270]-8His S766W-L809A (other)
chain: B1 chain with P1S, R2L, I3W, L46A
Consider B26, for which the Kd worked out at 258 pM, the koff came out at 0.00115 s⁻¹ and the kon is 4.45e+06 M⁻¹ s⁻¹.

B27: Hu-vWF[764-1270]-8His S764P-L765W-S766I (other)
chain: B1 chain with R2W
In the case of B27, the Kd was determined as 132 pM, the koff worked out at 0.000146 s⁻¹ and the kon came to 1.11e+06 M⁻¹ s⁻¹.
